Here are results for 4 molecules from US20240425559A1 (UNIVERSITY OF PITTSBURGH OF THE COMMONWEALTH SYSTEM OF …, published 2024).

The target of assay [1] is T1, TGF-β type II receptor (TβRII) (UniProt P37173 38-159).
T1 construct: A purified protein was injected in ITC and run on native gels; also called TbRII; transforming growth factor-β type II receptor
The experiment in a line: ITC, TβRII injected into the monomer, three replicates globally fit to a 1:1 model. The text has this:
(§1) FIG. 5: Binding of the engineered TGF-beta monomers (mmTGF-β2-7M, left; mmTGF-β2-7M2R, middle; and mmTGF-β2-2M-Del7-16, right) to the TGF-β type II receptor (TβRII) as detected by isothermal titration calorimetry (ITC). Upper panels depict the raw thermograms for three replicate titrations, while the lower panels depict the integrated heat (data points) for the three replicate titrations globally fit to a 1:1 binding isotherm (smooth line).
(§2) In order to evaluate the ability of the mmTGF-β2-7M variants described herein (mmTGF-β2-7M2R (SEQ ID NO: 4), mmTGF-β2-2M-Del7-16 (SEQ ID NO: 5), and mmTGF-β2-7M-PRDC (SEQ ID NO: 7)) to bind TβRII, isothermal titration calorimetry (ITC) and native gels were used. The ITC binding experiments were performed by injecting increasing amounts of TβRII into mmTGF-β2-7M2R (SEQ ID NO: 4) or mmTGF-β2-2M-Del7-16 (SEQ ID NO: 5), with mmTGF-β2-7M (SEQ ID NO: 3) used a reference control. These titrations yielded readily detectable isotherms with a large negative enthalpy and a near 1:1 binding stoichiometry (FIG. 5).
(In ITC the heat of successive injections is recorded.)

The target in assay [2] is T1, TGF-β type II receptor (TβRII). The experiment in a line: ITC; TβRII injected into the monomer; three replicate titrations globally fit to a 1:1 binding isotherm.
Text: as §1, §2

The target of assay [3] is TGF-β type II receptor (TβRII) on HEK-293 CAGA-Luc TGF-β reporter cells (UniProt P37173 23-567, limits assumed). Kind of assay: cell-based or functional assay.
Chain of TGF-β type II receptor (TβRII) on HEK-293 CAGA-Luc TGF-β reporter cells (P37173 23-567 limits assumed): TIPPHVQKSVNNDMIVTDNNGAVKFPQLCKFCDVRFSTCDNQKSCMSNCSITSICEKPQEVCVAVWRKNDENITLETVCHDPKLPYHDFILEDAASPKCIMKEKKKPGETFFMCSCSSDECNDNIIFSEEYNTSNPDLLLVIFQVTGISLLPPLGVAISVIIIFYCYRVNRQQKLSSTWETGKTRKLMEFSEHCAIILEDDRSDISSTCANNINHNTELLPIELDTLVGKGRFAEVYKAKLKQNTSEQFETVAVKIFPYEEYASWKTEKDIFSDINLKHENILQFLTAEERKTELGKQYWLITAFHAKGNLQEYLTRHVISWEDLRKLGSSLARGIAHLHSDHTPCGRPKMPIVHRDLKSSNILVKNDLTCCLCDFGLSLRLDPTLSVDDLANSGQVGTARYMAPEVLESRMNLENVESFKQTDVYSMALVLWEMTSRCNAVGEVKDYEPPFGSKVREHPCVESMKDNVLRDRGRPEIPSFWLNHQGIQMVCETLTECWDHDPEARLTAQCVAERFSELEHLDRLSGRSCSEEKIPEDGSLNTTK

T1 sequence (P37173 38-159 limits assumed): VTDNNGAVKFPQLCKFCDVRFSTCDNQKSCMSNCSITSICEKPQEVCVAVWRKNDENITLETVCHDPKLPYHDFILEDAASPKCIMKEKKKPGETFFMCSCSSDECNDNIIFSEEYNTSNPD

B1: mmTGF-β2-7M (ligand)
chain: ALDAAYCFRNVQDNCCLRPLYIDFRKDLGWKWIHEPKGYNANFCAGACPYRASKSPSCVSQDLEPLTIVYYVGRKPKVEQLSNMIVKSCKCS
notes: also called engineered human TGF-β2 monomer mmTGF-β2-7M; mmTGF-B27M
As for B1, the Kd (as a rule, the free concentration of one partner at which half of the binding sites on the other are occupied at equilibrium, for simple one-to-one binding) in assay [1] was determined as 60.5 nM. In addition, in assay [2], the ΔG is -9.85 kcal/mol, the ΔH is -4.63 kcal/mol and the ΔS came to 17.5 cal/mol•K. The “IC50, HEK-293 CAGA-Luc TGF-β reporter assay, stimulation with 10 pM TGF-β3” value (“IC50 … with 10 pM TGF-β3” below) in assay [3] was determined as 58.2 nM.

B2: mmTGF-β2-2M-Del7-16 (ligand)
chain: ALDAAYVFRNVQDNCALRPLYIDFRRDLGWKWIHEPKGYNANFCAGACPYRASKSPSCVSQDLEPLTILYYIGRTPKIEQLSNMIVKSCKCS
B2: the Kd in assay [1] was 80.1 nM. In assay [2], this molecule yielded a ΔG of -10 kcal/mol and a ΔH of -7.67 kcal/mol. Further, in assay [3], the “IC50 … with 10 pM TGF-β3” value came out at 111 nM.

B3: mmTGF-β2-7M2R (ligand)
chain: ALDAAYCFRNVQDNCCLRPLYIDFRKDLGWKWIHEPKGYNANFCAGACPYRASKSPRCRSQDLEPLTIVYYVGRKPKVEQLSNMIVKSCKCS
In turn, B3 returned a Kd in assay [1] of 75.1 nM. In assay [2], the ΔG is -10.1 kcal/mol, the ΔH is -10.5 kcal/mol and the ΔS is -1.44 cal/mol•K. For the same molecule, the “IC50 … with 10 pM TGF-β3” value in assay [3] is 53.3 nM.

B4: mmTGF-β2-7M-PRDC (ligand)
chain: KEVLASSQEALVVTERKYLKSDWCKLRPLYIDFRKDLGWKWIHEPKGYNANFCYGQCNSFYIPRHVKKEEDSFQSSAFCVSQDLEPLTIVYYVGRKPKVEQLSNMIVKSCRCMSV
B4: in assay [3], the “IC50 … with 10 pM TGF-β3” value is 282 nM and the “fold change of IC50 relative to mmTGF-β2-7M, HEK-293 CAGA-Luc TGF-β reporter assay” value is roughly 5 fold.
